Measurements taken from article PMC4901319.

Experiments:
[1] = target: copper chaperone for SOD1 (hCCS), wild-type, zinc metalated (human) (UniProt O14618); experiment: SEC-MALS; Agilent BioSEC-3 column, 20 mM Tris-HCl, 150 mM NaCl (TBS) with 1 mM DTT, 20 °C; monomer to dimer
[2] = target: copper chaperone for SOD1 (hCCS), wild-type, zinc metalated (human) (UniProt O14618); experiment: SEC; reducing conditions as above but with metal apo (zinc deficient) SOD1, mixed 1:1 with Zn-hCCS; Agilent BioSEC-3, TBS with 1 mM DTT, 20 °C
[3] = target: copper chaperone for SOD1 (hCCS), wild-type, zinc metalated (human) (UniProt O14618); experiment: SEC; non-reducing time course with metal apo SOD1: SOD1 reduced and desalted into oxygen purged TBS, mixed with hCCS (copper apo/zinc holo or copper(I) loaded), incubated at 20 °C (8 minutes to 20 hours), then SEC
R163W hCCS (human) [4] = target: R163W hCCS (human) (UniProt O14618); experiment: SEC-MALS; Agilent BioSEC-3 column, 20 mM Tris-HCl, 150 mM NaCl (TBS) with 1 mM DTT, 20 °C; monomer to dimer
R163W hCCS (human) [5] = target: R163W hCCS (human) (UniProt O14618); experiment: SEC; GE Superdex 200 10/300, TBS with 1 mM DTT, 0.5 ml/min, 500 μl loaded; high concentrations (series from 26 up to 918 μM before the column); monomer to dimer

Row | stoichiometry N [1] | stoichiometry N [2] | stoichiometry N [3] | stoichiometry N (R163W hCCS (human) [4]) | stoichiometry N (R163W hCCS (human) [5]) | Substance
1 | 2 | 2 | 2 | – | – | copper chaperone for SOD1 (hCCS), wild-type, zinc metalated (from UniProt O14618 1-274) (natural protein)
2 | – | – | – | 2 | 2 | R163W hCCS (from UniProt O14618 1-274) (natural protein)
